Assay results reported in patent publication US20120253023A1.

Target: T1, amylin receptor (rat), P32214
T1 chain 1: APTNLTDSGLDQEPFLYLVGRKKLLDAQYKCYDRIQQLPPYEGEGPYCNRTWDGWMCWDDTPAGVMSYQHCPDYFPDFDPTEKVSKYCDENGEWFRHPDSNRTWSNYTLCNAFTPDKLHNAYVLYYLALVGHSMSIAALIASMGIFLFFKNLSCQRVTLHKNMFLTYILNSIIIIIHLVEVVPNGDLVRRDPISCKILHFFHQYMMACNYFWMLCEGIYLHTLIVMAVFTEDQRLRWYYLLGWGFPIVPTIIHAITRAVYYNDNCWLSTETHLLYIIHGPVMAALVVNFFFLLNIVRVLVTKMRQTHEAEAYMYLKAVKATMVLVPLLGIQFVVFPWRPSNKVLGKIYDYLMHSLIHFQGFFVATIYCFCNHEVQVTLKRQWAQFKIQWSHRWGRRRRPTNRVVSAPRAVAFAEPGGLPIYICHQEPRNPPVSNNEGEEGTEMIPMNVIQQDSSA
T1 chain 2: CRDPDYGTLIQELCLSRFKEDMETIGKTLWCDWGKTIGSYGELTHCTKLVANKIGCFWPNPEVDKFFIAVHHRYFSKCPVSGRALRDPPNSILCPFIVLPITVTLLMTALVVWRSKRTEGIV

DFMGWMDFGKRKCNTATCATQRLANELVRLQTYPRTNVGSNTY (modifications not checked) [DF(P-CH2SO3)… …]
IC50: 0.083 nM
